Measurements as given in publication PMC8809517, “Cofactor-independent RNA editing by a synthetic S-type PPR protein”.

Key:
Experiment in all cases: high-throughput RNA pulldown from lysate on Ni-NTA beads; HRP: 50 mM Tris pH 8, 150 mM NaCl, 1 mM beta-mercaptoethanol, 50 ug/ml BSA, 3 ug/ml yeast RNA, 0.5% heparin; ITC and FP: Tris pH 8, 200 mM KCl, 5% glycerol; MST: 50 mM Tris pH 8, 200 mM NaCl, 1 mM DTT, BSA, heparin, 0.05% Tween 20
Conditions in all cases: tags: N-terminal His-eGFP
[1] = target: T1, GFP-9S library array, motif 4 ND N98F;D124R (synthetic construct, N98F;D124R)
T1 chain: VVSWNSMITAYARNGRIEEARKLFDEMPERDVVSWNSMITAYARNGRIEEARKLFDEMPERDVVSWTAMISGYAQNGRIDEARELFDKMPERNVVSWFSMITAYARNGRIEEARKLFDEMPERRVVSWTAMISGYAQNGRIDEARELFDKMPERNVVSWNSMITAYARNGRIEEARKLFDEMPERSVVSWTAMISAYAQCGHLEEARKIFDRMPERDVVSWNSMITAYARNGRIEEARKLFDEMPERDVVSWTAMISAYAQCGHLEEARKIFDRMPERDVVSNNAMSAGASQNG

[2] = target: T2, GFP-9S library array, motif 4 ND N98V;D124L (synthetic construct, N98V;D124L)
T2 chain: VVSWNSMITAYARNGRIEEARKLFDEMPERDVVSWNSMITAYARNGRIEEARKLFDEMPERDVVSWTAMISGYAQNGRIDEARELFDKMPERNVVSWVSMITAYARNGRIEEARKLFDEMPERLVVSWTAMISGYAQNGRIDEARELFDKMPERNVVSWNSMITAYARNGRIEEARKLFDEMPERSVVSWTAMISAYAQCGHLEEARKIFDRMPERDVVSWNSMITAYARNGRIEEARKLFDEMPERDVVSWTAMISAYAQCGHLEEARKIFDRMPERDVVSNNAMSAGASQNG

[3] = target: T3, GFP-9S library array, motif 4 ND N98C;D124W (synthetic construct, N98C;D124W)
T3 chain: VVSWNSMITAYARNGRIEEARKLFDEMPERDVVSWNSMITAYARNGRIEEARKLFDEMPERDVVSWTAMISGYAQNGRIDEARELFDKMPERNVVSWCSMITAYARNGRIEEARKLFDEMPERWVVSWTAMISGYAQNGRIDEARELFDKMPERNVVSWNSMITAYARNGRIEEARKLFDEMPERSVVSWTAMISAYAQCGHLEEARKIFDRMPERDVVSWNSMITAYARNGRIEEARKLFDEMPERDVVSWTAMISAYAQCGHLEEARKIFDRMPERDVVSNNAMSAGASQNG

[4] = target: T4, GFP-9S library array, motif 4 ND N98V;D124A (synthetic construct, N98V;D124A)
T4 chain: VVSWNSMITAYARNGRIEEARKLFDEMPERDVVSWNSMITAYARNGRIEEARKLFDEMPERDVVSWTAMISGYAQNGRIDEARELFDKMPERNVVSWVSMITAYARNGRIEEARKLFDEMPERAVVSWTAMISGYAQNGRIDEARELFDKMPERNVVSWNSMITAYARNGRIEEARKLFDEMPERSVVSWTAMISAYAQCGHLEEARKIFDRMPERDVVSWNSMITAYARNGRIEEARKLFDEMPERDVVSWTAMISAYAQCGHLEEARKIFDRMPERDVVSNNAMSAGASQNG

[5] = target: T5, GFP-9S library array, motif 4 ND N98T;D124V (synthetic construct, N98T;D124V)
T5 chain: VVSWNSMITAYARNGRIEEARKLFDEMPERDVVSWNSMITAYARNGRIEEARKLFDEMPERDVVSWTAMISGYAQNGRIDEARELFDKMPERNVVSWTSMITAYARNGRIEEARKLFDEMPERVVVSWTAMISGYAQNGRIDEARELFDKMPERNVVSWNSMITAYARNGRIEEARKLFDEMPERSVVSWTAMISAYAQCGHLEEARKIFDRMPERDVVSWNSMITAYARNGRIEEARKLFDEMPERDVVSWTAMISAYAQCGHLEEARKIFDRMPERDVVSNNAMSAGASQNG

Row | Binder | Kd ([1]; label: 5' Cy5) [nM] | Kd ([2]; label: 5' Cy5) [nM] | Kd ([3]; label: 5' Cy5) [nM] | Kd ([4]; label: 5' Cy5) [nM] | Kd ([5]; label: 5' Cy5) [nM] | Kd ([1]; label: 5' IRDye 800CW) [nM] | Kd ([2]; label: 5' IRDye 800CW) [nM] | Kd ([3]; label: 5' IRDye 800CW) [nM] | Kd ([4]; label: 5' IRDye 800CW) [nM] | Kd ([5]; label: 5' IRDye 800CW) [nM]
1 | AUUACACGUGA (ssRNA) [Cy5-rpoA] | 117 | 88.5 | 86.1 | 64.4 | 95.8 |  |  |  |  | 
2 | AUUAGACGUGA (ssRNA) [Cy5-rpoA-G] | 107 | 112 | 84.9 | 74.1 | 85.6 |  |  |  |  | 
3 | AUUAAACGUGA (ssRNA) [IR-rpoA-A] |  |  |  |  |  | 85.1 | 199 | 171 | 80.7 | 31.1
4 | AUUAUACGUGA (ssRNA) [IR-rpoA-U] |  |  |  |  |  | 176 | 126 | 234 | 71.8 | 140
